Series [1] is described as follows: SEC; high-performance size-exclusion chromatography (HPSEC) of the purified recombinant proteins; fractions of monomers, dimers, tri-/tetramers and high MW aggregates; details in the online Supporting Information. Background: Size exclusion chromatography separates by hydrodynamic size, large species first.
The target in another series is rCor a 1.0401 (hazelnut). Described as above.
The target of a further series is rMal d 1.0108 (apple). The description is as above.
Series [2] concerns the molecule itself. The description is as above.

Changes are numbered by the printed parent chain. Names and notes keep the numbering of the source.

Regarding rCor a 1.0401, the “percent high MW aggregates” value in series [1] is recorded as 9%.
rCor a 1.0401 (natural protein): in the series with rCor a 1.0401 (hazelnut), the percent dimers was determined as 28%, the percent monomers was 45% and the percent tri-/tetramers is 18%.
With rMal d 1.0108 (natural protein), in the series with rMal d 1.0108 (apple), the percent dimers was 34%, the percent monomers was determined as 56% and the percent tri-/tetramers was 8%.
Regarding rMal d 1.0108, in series [1], the “percent high MW aggregates” value was found to be 2%.
For Mal d 1 C107S, in series [1], the “percent high MW aggregates” value is on record as less than 0.5%.

B1: Cor a 1 C4,82,160S (natural protein)
chain: GVFSYEDEATSVIPPARLFKSFVLDADNLIPKVAPQHFTSAENLEGNGGPGTIKKITFAEGNEFKYMKHKVEEIDHANFKYSYSIIEGGPLGHTLEKISYEIKMAAAPHGGGSILKITSKYHTKGNASINEEEIKAGKEKAAGLFKAVEAYLLAHPDAYS
As for B1, the percent monomers in series [2] worked out at 93%.

B2: Cor a 1 C4,82,160S, L115K (natural protein)
chain: B1 chain with L115K
As to B2, the percent monomers in series [2] was greater than 99%.

B3: Mal d 1 C107S, I113K (natural protein)
chain: GVYTFENEFTSEIPPSRLFKAFVLDADNLIPKIAPQAIKQAEILEGNGGPGTIKKITFGEGSQYGYVKHRIDSIDEASYSYSYTLIEGDALTDTIEKISYETKLVASGSGSTKKSISHYHTKGNIEIKEEHVKAGKEKAHGLFKLIESYLKDHPDAYN
Turning to B3, the percent monomers in series [2] is greater than 99%.

B4: Mal d 1 C107S (natural protein)
chain: B3 chain with K113I
Consider B4, for which, in series [2], the percent monomers was greater than 98%.

The values above are taken from publication PMC4041322, “Differences in the intrinsic immunogenicity and allergenicity of Bet v 1 and related food allergens revealed by site-directed mutagenesis” (Allergy, 2013).
